Consider nine substances from article PMC5932218 (Structure (London, England : 1993), 2018).

In data set [1] the target is T1, calmodulin (CaM) (Homo sapiens, UniProt P0DP25). Briefly: Isothermal titration calorimetry of CaM binding to NaV IG peptides. Conditions: for effect of truncation of the IG peptide on CaM affinity: N- and C-terminally truncated IG peptides, Ca2+ present; for stoichiometry: 1:1 binding model.
The nature of data set [2]: Solubility of IG peptide in ITC buffers. In kind it is physicochemical. Conditions: under higher ionic strength conditions.
Data set [3] has as its target T1, calmodulin (CaM). Description: NMR analysis of Ca2+-loaded CaM binding to wild type versus mutant IG peptides. Conditions: 15N-enriched IG peptide with CaM, intermediate versus slow exchange.
The test system of data set [4] is calmodulin (CaM). Conditions: ref (15); cited from earlier work.
Data set [5] deals with NaV1.5 inactivation gate peptide Q1483-A1529 (human) (UniProt Q14524). Briefly: NMR titration.
The target is the same in data set [6]. Description: SEC-MALS.
Data set [7] shares this target. Briefly: SAXS.
Data set [8] addresses NaV1.2 inactivation gate peptide (aligned to NaV1.5 Q1483-A1529) (human). Description: ITC.
For data set [9], the target named is NaV1.4 inactivation gate peptide (aligned to NaV1.5 Q1483-A1529) (human). Description: ITC.
Data set [10] has as its target NaV1.5 inactivation gate peptide D1471-V1532 (full-length IG, 62 residues) (human) (UniProt Q14524). Description: ITC.
For data set [11], the target named is NaV1.5 inactivation gate peptide Q1483-A1529 (human) (UniProt Q14524). Briefly: ITC.
In data set [12] the target is NaV1.6 inactivation gate peptide (aligned to NaV1.5 Q1483-A1529) (human). Briefly: ITC.
[13] abbreviates: ITC, in the presence of Ca2+, lower ionic strength buffer.
Setting [14] is: ITC, 20 mM TRIS, 50 mM NaCl, 1 mM CaCl2, pH 7.4, triplicate, ± SD.

Chain of NaV1.5 inactivation gate peptide D1471-V1532 (full-length IG, 62 residues) (human) (Q14524 1471-1532, tags left off): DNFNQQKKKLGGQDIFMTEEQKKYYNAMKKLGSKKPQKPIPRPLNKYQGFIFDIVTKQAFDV

With “D1471-V1532: 62-residue peptide corresponding to the full-length NaV1.5 inactivation gate (IG)”, the “CaM interaction in the absence of Ca2+” value in the data set with calmodulin (CaM) [1] (ITC, absence of Ca2+) is on record as “no interaction was observed”. Further, in the data set with calmodulin (CaM) [1] (setting [13]), the ΔH is -9.3 ± 0.1 kcal/mol and the ΔS is given as 5.2 ± 1.1 cal/mol•deg. In addition, the solubility result in data set [2] is “limited solubility”.
Take “D1523: NaV1.5 IG peptide with the C terminus truncated to D1523”: the “effect of truncation of the IG peptide on CaM affinity” value with calmodulin (CaM) [1] (ITC) is recorded as “reduced affinity into the μM range”.
For “H-GPGSQDIFMTEEQKKYYNAMKKLGSKKPQKPIPRPLNKIQGIVFDFVTQQA-OH [NaV 1.6]”, on calmodulin (CaM) [1] (setting [14]), the stoichiometry is 1.03 ± 0.01, the “ΔH” value is -9.0 ± 0.2 kcal/mol and the “ΔS (cal/mol•deg)” value is 2.5 ± 1.1 cal/mol•deg. Also, the Kd on calmodulin (CaM) [1] (SD) is 82 ± 20 nM.
With “H-GPGSQDIFMTEEQKKYYNAMKKLGSKKPQKPIPRPQNKIQGMVYDLVTKQA-OH [NaV 1.4]”, on calmodulin (CaM) [1] (setting [14]), the stoichiometry was determined as 1.06 ± 0.01, the “ΔH” value was -8.8 ± 0.3 kcal/mol and the “ΔS (cal/mol•deg)” value is given as 3.8 ± 1.3 cal/mol•deg.
With “IG peptide double mutant: IG peptide with both the Y1494L (Site A) and F1522L (Site B) mutations”, in the data set with calmodulin (CaM) [3], the “affinity of CaM for the variant IG peptide relative to WT” value is on record as “significant reduction in the affinity”.
Turning to “Q1483: NaV1.5 IG peptide with the N terminus truncated to Q1483”, the “effect of truncation of the IG peptide on CaM affinity” value with calmodulin (CaM) [1] (ITC) is “no effect on CaM affinity”.
Same read-out and setting: then “T1526: NaV1.5 IG peptide with the C terminus truncated to T1526”, with “reduced affinity into the μM range”.
Regarding “Y1494A: Y1494A site A mutant of the IG from a previous study”, the “effect of Y1494A site A mutation on CaM affinity” value in the data set on calmodulin (CaM) [4] is recorded as “substantially reduced”.
Turning to “calmodulin (CaM), Ca2+-loaded unless stated (from UniProt P0DP25 1-149) (natural protein)”, the stoichiometry N was 1 in [5]; 1 in data set [6]; 1 in data set [7]; 1.02 in [8]; 1.06 in data set [9]; 1.03 in data set [12]. Also, the values for the dH in data set [10] and in data set [11] were -9.3 kcal/mol and -5.8 kcal/mol, respectively. The substance further yielded a Kd in [12] of 82 nM.
